Source: the nanobody polyreactivity screen of Harvey et al. (2022)

Assay: yeast display, Sf9 membrane polyspecificity reagent, FACS + sequencing; frameworks hold sequencing errors
Method in brief: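 Galactose-induced (36–48 hours) yeast carrying a synthetic nanobody display library were exposed to 10% biotinylated, detergent-solubilized Sf9 membrane reagent at 4 °C for 1 hour. FACS followed streptavidin microbead enrichment, using low and high (top ~1%) gates for expression (anti-HA) and reagent binding (streptavidin). Colony PCR, MiSeq 2 × 250 sequencing and CDR-length filtering followed. Labels for polyreactivity reflect the gate of origin.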

QVQLVESGGGLVQAGGSLRLTCAASGRTFTVYAMGGYRQAPGKEREFVAAITERGGSTYYADSVKGRFTISRDNAKNTVYLQMNSLKPEDTAVYYCAAVYYWRPGWYVRFDYWGQGTQVTVSS
polyreactivity (PSR sort gate): low polyreactivity

QVQLVESGGGLVQAGGSLRLSCAASGLTYAKYVMRWYRQAPGNERELVAAISRSGGSTFYADSVKGRFTISRDNAKNTVYLQMNSLKPEDTAVYYCAAAAWDPKGSRYDYWGQGTQVTVSS
polyreactivity (PSR sort gate): low polyreactivity

QVQLVESGGGLVQAGGSLRLSCAASGRIFLTNAMGWYRQAPGKERELVAAITSGGSTYYADSVKGRFTISRDNAKNTVYLQMNSLKPEDTAVYYCNADTDRYWPYEYDYWGQGSQVTVSS
polyreactivity (PSR sort gate): low polyreactivity

QVQLVESGGGLVQAGGSLRLSCAASGSIFGGYTMGWYRQAPGKERELVAAISARGGNTYYADSVKGRFTISRDNAKNTVYLQMNSLKPEDTAVYYCAKVRYTQSYRGYGYWGQGTQVTVSS
polyreactivity (PSR sort gate): high polyreactivity

QVQLVESGGGLVQAGGSLRLSCAASGRIFGGNVMGWNRQATWKERELVAFITRGTRTNYADSVKGRFTISRDNAKNTVYLQMNSLKPEDNAVFYCAADSRNSRQHTSYNSLNYWGQGTQVTVSS
polyreactivity (PSR sort gate): high polyreactivity

QVQLVESGGGLVQAGGSLRLSCAASGRIFDDYAMGWYRQAPGKERELVAAISSSGGSTYYADSVKGRFTISRDNAKNTVYLQMNSLKPEDTAVYYCARYPPGRRRYEYWGQGTQVTVSS
polyreactivity (PSR sort gate): high polyreactivity

QDLLVESAGGLVQAGGSLRLSCAASGRNFPYKAMGWYRPAPGKERELVAAISSGGSTNYADSVKGRFTTSRDNAKNTVYLQMNSLKPEDTAVYYCAVGYSYYPSDEFDYWGQGTQVTVSS
polyreactivity (PSR sort gate): low polyreactivity

QVQLVESGGGLVQAGGSLRLSCAASGRPFDFYAMGLYRQAPGKERELVADISTGGSTYYADSVKGRFTISRDNAKNTVYLQMNSLKPEDTAVYYCAAVGQDYYKVRYYYWGQGTQVTVSS
polyreactivity (PSR sort gate): low polyreactivity

QVQLVESGGGLVQAGGSLRLSCAASGRTFPYYTMGWYRQAPGKERELVAAISSSGGSTYYADSVKGRFTISRDNAKNTVYLQMNSLKPEDTAVYYCNAGYRWTHFGSWGQGTQVTVSS
polyreactivity (PSR sort gate): low polyreactivity

QVQLVESGGGLVQAGGSLRLSCAASGSIFYVYAMGWYRQAPGKVRELVAAITSSGTTNYADSVKGSFTISRDNAKNTVYLKMNSLKPEDTAVDSCAADPDSGQVPFDYLGQGTQVTVSS
polyreactivity (PSR sort gate): low polyreactivity

QVQLVESGGGLVQAGGSLRLSCAASGLNFYGYFMGWYRQAPGKERELVAAISATGGSTYYADSVKGRFTISRDTAKNTVYLQMNSLKPEETAVYYCAATYYSYTWFSQYYYWGQGTQVTVSS
polyreactivity (PSR sort gate): high polyreactivity

QVQLVESGGGLVQAGGSLRLSCAASGITFYHYAMGWYRQAPGKERELVAAITRSGGRTYYADSVKGRFTISRDNAKNTVFLQMNSLKPEDTAVYYCATDDRQGYFRSPREYDYWGQGTQVTVSS
polyreactivity (PSR sort gate): high polyreactivity

QVQLQESAGGLVQAGGSLRLRCSASGYISCDASMGWYRQAPGKERELAASITKGSSTNYADSVKGRFTIRDNAKNTVYLQMNSLKPEDTSVCYCAVTYPYWGDYTYWGQGTQVTVSS
polyreactivity (PSR sort gate): low polyreactivity

QVQLVESGGGLVQAGGSLRLSCAASGRIFIPNTMGWYIQAPGKERELVAAITWSGSSTYYADSVKGRFTISRDNAKNTVYLQMNSLKPEDTAVYYCAAYPSCYVVVSKGDYWGQGTQVTVSS
polyreactivity (PSR sort gate): high polyreactivity

QVQLVESGGGLVQAGGSLRLSCAASGRTCYINAMGWYRQAPGKERELVAAISSGGSTNYADSVKGRFTISRDNAKNTVYLQMNSLKPEDTAVYYCNAKYYQGTPVELDYWGQATQVTVSS
polyreactivity (PSR sort gate): low polyreactivity

QVQLQESGGGLVQVGGSQRLSCAASGNIFYNYAMGWYRHAQGKEREFDATINHGTSINYADSVKGRFTISRDNAKNTVYLQMNSLKPEDTAVYYCAARVVRYGYKYYYWGQGTQVTLSS
polyreactivity (PSR sort gate): low polyreactivity

QVQLVESGGGLVQAGGSLRLSCAASGSTIEDNTMGWYRQAPGKERELVAAISNSGGSTYYADSVKGRFTISRDYAKNTVYLQMISLKPEDTAVYYCAADFYDPFDYWGQGTQVTVSS
polyreactivity (PSR sort gate): low polyreactivity

QVQLVESGGGLVQAGGSLRLSCAASGLIFYKYAMGWYRQAPGKERELVAAITRGGGSTSYADSVKGRFTISRDNAKNTVYLQMNCLKPEDTAVYYCNAAPYTRALQGEFDYWGQGTQVTVSS
polyreactivity (PSR sort gate): high polyreactivity

QVQLVESGAGLVQAGGILRLSCAASGLTFSRYTMGWSRQAPGKERELVAAITSSGGSTYYADSVKGRFTISRDNAKNTVSLEMNSLKPEDTAVNYCAARYPGTRGDGYWGLGTQVTVSS
polyreactivity (PSR sort gate): high polyreactivity

QVQLVESGGGLVQARGSLRLSCAASGSTFDPYAMGWYRQAPGINYSGASTYYADSVKGRFTISRDNAKNTVYLQMNSLKPDDTAVYYCAAEFVAQMNYWGQGTQVNVSS
polyreactivity (PSR sort gate): low polyreactivity

QVQLVESGGGLVQAGGSLRLSCAASGRTFGWYAMGSYRQAPGKERELVAAITSGTSTYYADSVKGRFTISRDNAKYTVYLQMNSRKPEDTAVYYCAVDRGISVGYTRFDYWGQGTQVTVSS
polyreactivity (PSR sort gate): low polyreactivity

QVQLVESGGGLVQAGGSLRLSCAASGFIFNTMGWYRQAPGKERELVATISWSDGSTYYADSVKGRFTISRDNAKNTVYLQMNSLKPEDTAVYYCAADSRPWGSSMDSWGQGTQVTVSS
polyreactivity (PSR sort gate): low polyreactivity

QVQLVESGGGLVQAGGSLRLSCAASGSTFYDYAMGWYRQAPGKERELVASISISGGSTYADSVKGRFTISRDNAKNTVYLQMNSLKPEDTAVYYCNAKNYSWDDYYWVPDYEYWGQGTQVTVSS
polyreactivity (PSR sort gate): low polyreactivity

QVQLVESGGGLVQAGGSLRLTCAASGFIFGANTRGWYRQAPGKERELVATISWSGGSTYYADSVKGRFTISRDNAKMTVYLQMNSLKPEVTAVYYCAAPGVTYGFRSVYWGQGTQVTVSS
polyreactivity (PSR sort gate): low polyreactivity

QVQLVESGGGLVQAGGSLRLSCAASGSIFTKYVMGWYRQAPGKERELVAAITYRGGSTYYADSVKGRFTISRDNAKNTVYLQMNSLKPEDTAVYDCAAEYYRYKYTAYRTDDYWGQGTQVTVSS
polyreactivity (PSR sort gate): high polyreactivity

QVQLVESGGGLVQAGGRLRLSCAASGRIFRGYAMGWYRQAPGKERELVAGITWGGGRTYYADSVKGRFTISRDNAKNTVYLQLNSLKPEDTAVYYCAAYYSQDSRRKYDYWGQGTQVTVSS
polyreactivity (PSR sort gate): high polyreactivity

QDQIVESGGGLVQAGGSLRLSCAASGIIFWSYAMAWYRQAPGKERELVAAINTSGDSSYYADSVKGRFTISRDNAKNTVYLQMNSLKAEDTAVYYCAAKSSTRGDYWGQGTQVTVSS
polyreactivity (PSR sort gate): low polyreactivity

QVQLVESGGGLVQAGGSLRLSCAASGYILTHYAMGWYRQAPGKERELVAAITRVGNTNYADSVKGRFTISRDNAKNTVYLQMNSLKPEDTAVYYCAVTYNGDSSWPGDYWGQGTQVTVSS
polyreactivity (PSR sort gate): low polyreactivity

QVQLVESGGGLVQAGGSLRLSCAASGLTVDTYDMGWYIQAPGKERELVAAIDWSGVSTYYADSVKGRFTISRDNAKNTVYLQKNSLKTEDTAVYYCAADLLQYDIASWDYTYDYWGQGTQVTVSS
polyreactivity (PSR sort gate): low polyreactivity

QVQLVESGGGLVQAGGSLRLSCAASGITLLYNAMGWYRQAPGKERELVAGITGRGGSTYYADSVKGRFTISRDNAKNTVSLQMNSLKPEDNAVYYCAATTDYRYVGRIVIRDDHWGQGTQVTVSS
polyreactivity (PSR sort gate): low polyreactivity

QVQLVESGGGLVQAGGSLRLSCAPSGSILWLNAMGWYRQAPGKERELVADITRGGSTYYADSVKGRFTISRDNAKNTVYLQMNSLKPEDTAVYYCAAKRGKTYQRFDYWGQGTQVTVSS
polyreactivity (PSR sort gate): high polyreactivity

QVQLVESGGGLVQAGGSLRLSCAASGNIFTYYVMGWYRQAPGKESELVAAISRRGGSTYYADSVKGRFTISRDNAKNTVYLQMNSLNPEDTAVYYCADRWYKWSTFSGWSRYDYWGQGTQVTVSS
polyreactivity (PSR sort gate): high polyreactivity
